Assay results from paper PMC7264160.

Target: Nascent polypeptide-associated complex (NAC) protein of Picrophilus torridus (Picrophilus torridus)
Experiment: SEC; HiPrep S-200 HR column; elution compared with protein standards run on this column

Nascent polypeptide-associated complex (NAC) protein of Picrophilus torridus (natural protein)
stoichiometry N: 2
